Results published in PMC3627646.

How the values were obtained:
[1] = molecular target: Ankyrin2, large isoform (Ank2-L) (Drosophila (endogenous in larval brain))
[2] = molecular target: Ank2-S–EGFP (short isoform of Ank2 containing all potential Nrg interacting domains) (Drosophila); experiment: co-IP; S2 cells co-transfected with act5C–Gal4, UAS–Ank2-S–EGFP and UAS–Nrg–3xHA; IP of Nrg180-HA proteins using Ank2-S–GFP; blots with anti-HA and anti-GFP; four independent IPs quantified (Odyssey2.1)
[3] = molecular target: Ankyrin2, large isoform (Ank2-L) (Drosophila (endogenous in larval brain)); remark: listed apart in the source

Nrg180-HA Y-A (tyrosine of the FIGQY motif replaced with alanine) (from UniProt P20241-1 24-1302) (natural protein)
FRAP of GFP-tagged Nrg180^Y-A in motoneurons in vivo (ok371–Gal4): mobility against wild type (fold against wild type) [1]: > 1.5
decrease in binding capacities compared to wild-type [2]: 90%

Nrg180-HA Y-D (tyrosine of the FIGQY motif replaced with aspartate) (from UniProt P20241-1 24-1302) (natural protein)
FRAP of GFP-tagged Nrg180^Y-D in motoneurons in vivo (ok371–Gal4): mobility against wild type (fold against wild type) [1]: > 1.5
decrease in binding capacities compared to wild-type [2]: 70%

Nrg180-HA Y-F (tyrosine of the FIGQY motif replaced with phenylalanine) (from UniProt P20241-1 24-1302) (natural protein)
FRAP of GFP-tagged Nrg180^Y-F in motoneurons in vivo (ok371–Gal4): mobility against wild type (fold against wild type) [1]: > 1.5
decrease in binding capacities compared to wild-type [2]: 30%

Nrg180-HA ΔFIGQY (entire FIGQY motif deleted) (from UniProt P20241-1 24-1302) (natural protein)
FRAP of GFP-tagged Nrg180^ΔFIGQY in motoneurons in vivo (ok371–Gal4): mobile fraction [3]: 80%

B1: Nrg180-HA, wild type (UAS–Nrg–3xHA) (natural protein)
chain: KGNRPPRITKQPAPGELLFKVAQQNKESDNPFIIECEADGQPEPEYSWIKNGKKFDWQAYDNRMLRQPGRGTLVITIPKDEDRGHYQCFASNEFGTATSNSVYVRKAELNAFKDEAAKTLEAVEGEPFMLKCAAPDGFPSPTVNWMIQESIDGSIKSINNSRMTLDPEGNLWFSNVTREDASSDFYYACSATSVFRSEYKIGNKVLLDVKQMGVSASQNKHPPVRQYVSRRQSLALRGKRMELFCIYGGTPLPQTVWSKDGQRIQWSDRITQGHYGKSLVIRQTNFDDAGTYTCDVSNGVGNAQSFSIILNVNSVPYFTKEPEIATAAEDEEVVFECRAAGVPEPKISWIHNGKPIEQSTPNPRRTVTDNTIRIINLVKGDTGNYGCNATNSLGYVYKDVYLNVQAEPPTISEAPAAVSTVDGRNVTIKCRVNGSPKPLVKWLRASNWLTGGRYNVQANGDLEIQDVTFSDAGKYTCYAQNKFGEIQADGSLVVKEHTRITQEPQNYEVAAGQSATFRCNEAHDDTLEIEIDWWKDGQSIDFEAQPRFVKTNDNSLTIAKTMELDSGEYTCVARTRLDEATARANLIVQDVPNAPKLTGITCQADKAEIHWEQQGDNRSPILHYTIQFNTSFTPASWDAAYEKVPNTDSSFVVQMSPWANYTFRVIAFNKIGASPPSAHSDSCTTQPDVPFKNPDNVVGQGTEPNNLVISWTPMPEIEHNAPNFHYYVSWKRDIPAAAWENNNIFDWRQNNIVIADQPTFVKYLIKVVAINDRGESNVAAEEVVGYSGEDRPLDAPTNFTMRQITSSTSGYMAWTPVSEESVRGHFKGYKIQTWTENEGEEGLREIHVKGDTHNALVTQFKPDSKNYARILAYNGRFNGPPSAVIDFDTPEGVPSPVQGLDAYPLGSSAFMLHWKKPLYPNGKLTGYKIYYEEVKESYVGERREYDPHITDPRVTRMKMAGLKPNSKYRISITATTKMGEGSEHYIEKTTLKDAVNVAPATPSFSWEQLPSDNGLAKFRINWLPSTEGHPGTHFFTMHRIKGETQWIRENEEKNSDYQEVGGLDPETAYEFRVVSVDGHFNTESATQEIDTNTVEGPIMVANETVANAGWFIGMMLALAFIIILFIIICIIRRNRGGKYDVHDRELANGRRDYPEEGGFHEYSQPLDNKSAGRQSVSSANKPGVESDTDSMAEYGDGDTGQFTEDGSFIGQYVPGKLQPPVSPQPLNNSAAAHQAAPTAGGSGAAGSAAAAGASGGASSAGGAAASNGGAAAGAVATYV
FRAP of GFP-tagged Nrg180 in motoneurons in vivo (ok371–Gal4): mobile fraction (% of total protein) [3]: 40
